Values quoted from earlier work in patent US8679781B2, “In vitro peptide expression library” (Isogenica Limited, priority 2002, dated 2014).

Biological target: double stranded DNA oestrogen receptor target HRE nucleotide sequence
Conditions: fragment expressed in E. coli; similar to the parent molecule; read-out: affinity

B1: oestrogen receptor DNA binding domain fragment (amino acids 176-282): oestrogen receptor DNA binding domain fragment (amino acids 176-282) expressed in E. coli (protein, UniProt P03372 176-282, looked up, fragment)
chain: MESAKETRYCAVCNDYASGYHYGVWSCEGCKAFFKRSIQGHNDYMCPATNQCTIDKNRRKSCQACRLRKCYEVGMMKGGIRKDRRGGRMLKHKRQRDDGEGRGEVGS
Q: With B1 as the molecule, how does the Kd read?
A: 0.5 nM
